Assay in all cases: purified protein
What all share (type): biochemical, Serratia marcescens

The subject of data set [1] is CCN[C@@H]1C[C@H](N)[C@@H](O[C@H]2OC(CN)=CC[C@H]2N)[C@H](O)[C@H]1O[C@H]1OC[C@](C)(O)[C@H](NC)[C@H]1O. The note with it: 500 μM acetyl-CoA.
Data set [2] has as its system NCC[C@H](O)C(=O)N[C@@H]1C[C@H](N)[C@@H](O[C@H]2O[C@H](CN)[C@@H](O)[C@H](O)[C@H]2O)[C@H](O)[C@H]1O[C@H]1O[C@H](CO)[C@@H](O)[C@H](N)[C@H]1O. The note with it: 500 μM acetyl-CoA, 50 mM HEPES pH 7.5, AAC(6′) domain.
For data set [3], the system named is CN[C@@H]1[C@@H](O)[C@@H](O[C@@H]2[C@@H](O)[C@H](O[C@H]3OC(CN)=CC[C@H]3N)[C@@H](N)C[C@H]2N)OC[C@]1(C)O. The note with it: 500 μM acetyl-CoA.
Data set [4] deals with NC[C@H]1O[C@H](O[C@H]2[C@H](O)[C@@H](O[C@H]3O[C@H](CO)[C@@H](O)[C@H](N)[C@H]3O)[C@H](N)C[C@@H]2N)[C@H](N)C[C@@H]1O. The settings on record: 500 μM acetyl-CoA.
The test system of data set [5] is NC[C@@H]1O[C@H](O[C@H]2[C@@H](O)[C@H](O[C@@H]3[C@@H](O)[C@H](N)C[C@H](N)[C@H]3O[C@H]3O[C@H](CN)[C@@H](O)[C@H](O)[C@H]3N)O[C@@H]2CO)[C@H](N)[C@@H](O)[C@@H]1O. The settings on record: 500 μM acetyl-CoA, 50 mM HEPES pH 7.5.
The test system of data set [6] is NC[C@H]1O[C@H](O[C@H]2[C@H](O[C@@H]3O[C@H](CO)[C@@H](O)[C@H]3O)[C@@H](O)[C@H](N)C[C@@H]2N)[C@H](N)[C@@H](O)[C@@H]1O. The settings on record: 500 μM acetyl-CoA, 50 mM HEPES pH 7.5.
The subject of data set [7] is O=c1ccn([C@@H]2O[C@H](COP(=O)(O)OP(=O)(O)OP(=O)(O)O)[C@@H](O)[C@H]2O)c(=O)[nH]1. The note with it: 750 μM SPT, 50 mM Tris-HCl pH 7.5, 10 mM MgCl2, 50 mM KCl, 25 °C.
Data set [8] relates to CN[C@@H]1[C@H](O)[C@H](NC)[C@H]2O[C@@]3(O)C(=O)C[C@@H](C)O[C@H]3O[C@@H]2[C@H]1O. The note with it: 200 μM ATP, 50 mM Tris-HCl pH 7.5, 10 mM MgCl2, 50 mM KCl, 25 °C.
For data set [9], the system named is O=P(O)(O)OP(=O)(O)OP(=O)(O)OC[C@H]1O[C@@H](n2cnc3c(O)ncnc32)[C@H](O)[C@@H]1O. The note with it: 750 μM SPT, 50 mM Tris-HCl pH 7.5, 10 mM MgCl2, 50 mM KCl, 25 °C.
Data set [10] concerns Nc1ccn([C@@H]2O[C@H](COP(=O)(O)OP(=O)(O)OP(=O)(O)O)[C@@H](O)[C@H]2O)c(=O)n1. The settings on record: 750 μM SPT, 50 mM Tris-HCl pH 7.5, 10 mM MgCl2, 50 mM KCl, 25 °C.
Where [11] appears, read: 50 mM HEPES pH 7.5, AAC(6′) domain.

In the case of “NHis10-tagged ANT(3″)-Ii/AAC(6′)-IId (Serratia marcescens)”, the Michaelis-Menten constant (Km) (in general, the substrate concentration at which the rate is half of its maximum) in data set [1] (setting [11]) came to 1.77 ± 0.41 µM; in data set [2], 0.556 ± 0.130 µM; in [3] (setting [11]), 2.20 ± 0.60 µM; in [4] (setting [11]), 7.92 ± 0.53 µM. The kcat (as a rule, the number of substrate molecules converted per active site and unit of time at saturation) in [1] (setting [11]) stood at 1.91 ± 0.08 s⁻¹; in data set [2], 2.92 ± 0.1 s⁻¹; in data set [3] (setting [11]) it was 2.93 ± 0.16 s⁻¹; in [4] (setting [11]), 3.84 ± 0.07 s⁻¹. In addition, the kcat/Km (as a rule, the second-order rate constant that governs catalysis at low substrate concentration) in data set [1] (setting [11]) is 1.08e+06 ± 250000 M⁻¹ s⁻¹; in data set [2], 5.25e+06 ± 1.25e+06 M⁻¹ s⁻¹; in [3] (setting [11]), 1.33e+06 ± 370000 M⁻¹ s⁻¹; in data set [4] (setting [11]) it was 485000 ± 34000 M⁻¹ s⁻¹.

Take “NHis6-tagged AAC(6′)-IId(267-463) (Serratia marcescens)”: the Km was 3.87 ± 0.90 µM in [1] (50 mM HEPES pH 7.5); 32.1 ± 11.1 µM in data set [5]; 69.3 ± 4.5 µM in data set [6]; 4.92 ± 1.14 µM in [3] (50 mM HEPES pH 7.5); 14.8 ± 3.4 µM in data set [4] (50 mM HEPES pH 7.5). The catalytic constant (kcat) in [1] (50 mM HEPES pH 7.5) was determined as 3.21 ± 0.2 s⁻¹; in [5] it was 11.1 ± 1 s⁻¹; in [6], 5.7 ± 0.12 s⁻¹; in data set [3] (50 mM HEPES pH 7.5), 5.35 ± 0.27 s⁻¹; in data set [4] (50 mM HEPES pH 7.5), 3.73 ± 0.25 s⁻¹. Besides, the kcat/Km in data set [1] (50 mM HEPES pH 7.5) was found to be 829000 ± 200000 M⁻¹ s⁻¹; in data set [5], 346000 ± 124000 M⁻¹ s⁻¹; in data set [6], 82200 ± 5600 M⁻¹ s⁻¹; in data set [3] (50 mM HEPES pH 7.5) it was 1.09e+06 ± 260000 M⁻¹ s⁻¹; in data set [4] (50 mM HEPES pH 7.5), 252000 ± 60000 M⁻¹ s⁻¹.

“CHis6-tagged ANT(3″)-Ii(1-266) (Serratia marcescens)”: the Km turned out to be 26.2 ± 5.7 µM in data set [7], 0.123 ± 0.015 µM in data set [8], 12.6 ± 1.5 µM in data set [9] and 33.3 ± 5.6 µM in data set [10]. For the same substance, the kcat was found to be 0.603 ± 0.047 s⁻¹ in data set [7], 5.13 ± 0.11 s⁻¹ in data set [8], 0.481 ± 0.013 s⁻¹ in data set [9] and 0.709 ± 0.04 s⁻¹ in data set [10]. For the same substance, the kcat/Km was determined as 23000 ± 5300 M⁻¹ s⁻¹ in data set [7], 4.15e+07 ± 5.1e+06 M⁻¹ s⁻¹ in data set [8], 38100 ± 4500 M⁻¹ s⁻¹ in data set [9] and 21300 ± 3800 M⁻¹ s⁻¹ in [10].

(Values after article PMC3646955.)
